This is an account of results in article PMC10688271, “Molecular details of the CPSF73-CPSF100 C-terminal heterodimer and interaction with Symplekin”.

The target of this series is T1, ec73-CTD12;ec100-CTD12 (Encephalitozoon …, UniProt Q8SUE4;M1JIZ1 452-567;525-639, |).
T1 sequence 1: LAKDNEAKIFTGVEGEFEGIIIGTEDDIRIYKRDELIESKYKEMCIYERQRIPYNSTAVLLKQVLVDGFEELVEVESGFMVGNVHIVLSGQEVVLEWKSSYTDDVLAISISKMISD
T1 sequence 2: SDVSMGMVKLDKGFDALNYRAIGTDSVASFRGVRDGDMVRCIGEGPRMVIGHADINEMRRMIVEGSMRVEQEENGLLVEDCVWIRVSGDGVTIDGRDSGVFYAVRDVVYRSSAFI
Kind of series: EMSA; 50 uM protein, 500 nM nucleic acid; NMR also negative (NMR ligands not specified); EMSA: 20 mM Tris pH 7.5, 150 mM potassium acetate, 1 mM EDTA, 10% glycerol; 30 min incubation; 10% Tris-glycine gel (running buffer 27 mM Tris, 192 mM glycine). The following applies: protein: recombinant;recombinant, copies: 1;1. (In general: Mobility shift assays separate free from complexed probe on a gel.)

[1] abbreviates: label: 3' Cy3 on forward strand, blunt.

B1: dsDNA-Cy3 (dsDNA)
DNA 1: AGGGTCTCCATTTTGAAGCATGC
DNA 2: GCATGCTTCAAAATGGAGACCCT
For B1, the binding result under setting [1] is given as “no binding”.

B2: ssRNA-Cy3 (ssRNA)
RNA: AGGGUCUCCAUUUUGAAGCAUGC
On to B2, for which the binding result (label: 3' Cy3, single strand) is “no binding”.

B3: dsRNA-Cy3 (dsRNA)
RNA 1: AGGGUCUCCAUUUUGAAGCAUGC
RNA 2: GCAUGCUUCAAAAUGGAGACCCU
Turning to B3, under setting [1], the binding result is recorded as “no binding”.

B4: ssDNA-Cy3 (ssDNA)
DNA: AGGGTCTCCATTTTGAAGCATGC
Regarding B4, the binding result (label: 3' Cy3, single strand) is reported as “no binding”.
